Reference: US20120058906A1 (published 2012)
One block for each binder: values may come before it.

Columns and labels:
[1] = target: T1, Recombinant Human DLL4 (R&D Systems Cat#1506-D4/CF) (human, UniProt Q9NR61 27-524); assay: MSD ECL multi-spot plate; Fab 8.1 nM; blank spot 435
T1 construct: also called delta-like protein 4

[2] = target: T2, rHuman EGF R/Fc Chimera, CF (R&D Systems Cat#344-ER) (human, UniProt P00533 25-645); assay: as above
T2 construct: also called epidermal growth factor receptor; Fc part of the bought chimera not given

[3] = target: T3, rHuman Notch-1/Fc Chimera, CF (R&D Systems Cat#3647-TK) (human, UniProt P46531 19-526); assay: as above
T3 construct: Fc part of the bought chimera not given

[4] = target: T4, rHuman HGF R/c-MET/Fc Chimera, CF (R&D Systems Cat#358-MT/CF) (human, UniProt P08581 25-932); assay: ECL (MSD Multi-Spot) binding, antigen spotted on plate; Fab 0.5 nM
T4 construct: Bought Fc chimera; also called HGF R/Fc; hepatocyte growth factor receptor; Fc part of the bought chimera not given

[5] = target: T5, rHuman P-Cadherin/Fc Chimera, CF (R&D Systems Cat#861-PC) (human, UniProt P22223 108-654); assay: as above
T5 construct: Bought Fc chimera; Fc part of the bought chimera not given

[6] = target: T6, rHuman Erythropoietin R/Fc Chimera, CF (R&D Systems Cat#963-ER) (human, UniProt P19235 25-250); assay: as above
T6 construct: Bought Fc chimera; also called EPO R/Fc; erythropoietin receptor; Fc part of the bought chimera not given
T6 sequence: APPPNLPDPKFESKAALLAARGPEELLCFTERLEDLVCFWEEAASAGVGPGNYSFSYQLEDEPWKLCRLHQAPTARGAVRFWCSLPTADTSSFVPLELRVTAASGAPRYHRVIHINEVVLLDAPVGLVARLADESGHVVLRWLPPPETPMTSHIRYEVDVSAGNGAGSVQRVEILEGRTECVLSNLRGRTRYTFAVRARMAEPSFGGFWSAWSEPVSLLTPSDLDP

[7] = target: T7, rHuman CD44/Fc Chimera, CF (R&D Systems Cat#3660-CD) (human, UniProt P16070 21-220); assay: as above
T7 construct: Bought Fc chimera; Fc part of the bought chimera not given

[8] = target: T8, Recombinant Human DLL4 (R&D Systems Cat#1506-D4/CF) (human, UniProt Q9NR61 27-524); assay: as above
T8 construct: Bought recombinant protein; also called delta-like protein 4

[9] = target: T9, rHuman ErbB2/Fc Chimera, CF (R&D Systems Cat#1129-ER) (human, UniProt P04626 23-652); assay: as above
T9 construct: Bought Fc chimera; also called human epidermal growth factor 2 receptor; HER2/neu; Fc part of the bought chimera not given

[10] = target: T10, rHuman Notch-1/Fc Chimera, CF (R&D Systems Cat#3647-TK) (human, UniProt P46531 19-526); assay: as above
T10 construct: Bought Fc chimera; Fc part of the bought chimera not given

[11] = target: T11, rHuman IGF-1 sR, CF (R&D Systems Cat#391-GR) (human, UniProt P08069 31-932); assay: as above
T11 construct: Bought soluble receptor; also called insulin-like growth factor-1 soluble receptor; IGF-R1

[12] = target: T12, rHuman EGF R/Fc Chimera, CF (R&D Systems Cat#344-ER) (human, UniProt P00533 25-645); assay: as above
T12 construct: Bought Fc chimera; also called epidermal growth factor receptor; Fc part of the bought chimera not given

[13] = target: T13, rHuman P-Cadherin/Fc Chimera, CF (R&D Systems Cat#861-PC) (human, UniProt P22223 108-654); assay: ECL (MSD multi-spot), antigen spotted on plate; Fab 88.1 nM; blank spot 301
T13 construct: Bought reagent; also called CDH3; Fc part of the bought chimera not given

[14] = target: T14, rHuman HGF R/c-MET/Fc Chimera, CF (R&D Systems Cat#358-MT/CF) (human, UniProt P08581 25-932); assay: as above
T14 construct: Bought reagent; also called HGF R/Fc; hepatocyte growth factor receptor; Fc part of the bought chimera not given

[15] = target: T15, rHuman Notch-1/Fc Chimera, CF (R&D Systems Cat#3647-TK) (human, UniProt P46531 19-526); assay: as above
T15 construct: Bought reagent; Fc part of the bought chimera not given

[16] = target: T16, rHuman EGF R/Fc Chimera, CF (R&D Systems Cat#344-ER) (human, UniProt P00533 25-645); assay: as above
T16 construct: Bought reagent; also called epidermal growth factor receptor; Fc part of the bought chimera not given

[17] = target: T17, Recombinant Human DLL4 (R&D Systems Cat#1506-D4/CF) (human, UniProt Q9NR61 27-524); assay: as above
T17 construct: Bought reagent; also called delta-like protein 4

[18] = target: T18, rHuman Erythropoietin R/Fc Chimera, CF (R&D Systems Cat#963-ER) (human, UniProt P19235 25-250); assay: as above
T18 construct: Bought reagent; also called EPO R/Fc; Epo R; Fc part of the bought chimera not given
T18 sequence: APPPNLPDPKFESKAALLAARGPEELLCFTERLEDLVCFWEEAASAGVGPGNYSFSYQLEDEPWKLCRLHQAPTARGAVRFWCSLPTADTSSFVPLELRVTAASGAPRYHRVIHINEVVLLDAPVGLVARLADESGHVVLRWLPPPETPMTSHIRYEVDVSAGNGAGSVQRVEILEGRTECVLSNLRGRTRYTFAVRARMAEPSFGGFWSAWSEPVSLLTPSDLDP
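Note: blank spot per well as comparator with Hit at signal to blank ratio of 4 or more.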

ECL signal [1]: 1550 ECL signal
ECL signal [2]: 560 ECL signal
ECL signal [3]: 612 ECL signal
B1: Fab VH1-8_IGHD2-2*01_IGHJ6*01 & L12_IGKJ1*01 (Fab, V domains shown)
VH: QVQLVQSGAEVKKPGASVKVSCKASGYTFTSYDINWVRQATGQGLEWMGWMNPNSGNTGYAQKFQGRVTMTRNTSISTAYMELSSLRSEDTAVYYCARGGYCSSTSCYADYYYYYGMDVWGQGTTVTVSS
VL: not shown

ECL signal [4]: 319
ECL signal [5]: 215
ECL signal [6]: 359
ECL signal [7]: 279
ECL signal [8]: 2970
ECL signal [9]: 331
ECL signal [10]: 263
ECL signal [11]: 164
ECL signal [12]: 273
B2: Fab VH1-46_IGHD6-6*01_IGHJ1*01_S102A_S103P_S104F_H111Y & L6_IGKJ1*01 (Fab, V domains shown)
VH: QVQLVQSGAEVKKPGASVKVSCKASGYTFTSYYMHWVRQAPGQGLEWMGIINPSGGSTSYAQKFQGRVTMTRDTSTSTVYMELSSLRSEDTAVYYCAREEYAPFSAEYFQYWGQGTLVTVSS
VL: not shown
notes: Fab made in E. coli; The heavy chain also carries the CH1 with Flag and His tags of Plasmid A, and the light chain the kappa constant region of Plasmid C

ECL signal [13]: 278
ECL signal [14]: 392
ECL signal [15]: 440
ECL signal [16]: 376
ECL signal [17]: 434
ECL signal [18]: 3370
B3: Fab VH1-46_IGHD3-10*01_IGHJ4*01 & B3_IGKJ1*01 (Fab, V domains shown)
VH: QVQLVQSGAEVKKPGASVKVSCKASGYTFTSYYMHWVRQAPGQGLEWMGIINPSGGSTSYAQKFQGRVTMTRDTSTSTVYMELSSLRSEDTAVYYCAREYYYGSGSYYNDYFDYWGQGTLVTVSS
VL: not shown
notes: also called IGHV1-46*01
